According to publication PMC4267844, “The Lifestyle Switch Protein Bd0108 of Bdellovibrio bacteriovorus Is an Intrinsically Disordered Protein” (PLoS ONE, 2014):

Biological target: T1, Bd0109 (Bdellovibrio bacteriovorus HD100, UniProt Q6MRH5 1-550)
T1 sequence (looked up): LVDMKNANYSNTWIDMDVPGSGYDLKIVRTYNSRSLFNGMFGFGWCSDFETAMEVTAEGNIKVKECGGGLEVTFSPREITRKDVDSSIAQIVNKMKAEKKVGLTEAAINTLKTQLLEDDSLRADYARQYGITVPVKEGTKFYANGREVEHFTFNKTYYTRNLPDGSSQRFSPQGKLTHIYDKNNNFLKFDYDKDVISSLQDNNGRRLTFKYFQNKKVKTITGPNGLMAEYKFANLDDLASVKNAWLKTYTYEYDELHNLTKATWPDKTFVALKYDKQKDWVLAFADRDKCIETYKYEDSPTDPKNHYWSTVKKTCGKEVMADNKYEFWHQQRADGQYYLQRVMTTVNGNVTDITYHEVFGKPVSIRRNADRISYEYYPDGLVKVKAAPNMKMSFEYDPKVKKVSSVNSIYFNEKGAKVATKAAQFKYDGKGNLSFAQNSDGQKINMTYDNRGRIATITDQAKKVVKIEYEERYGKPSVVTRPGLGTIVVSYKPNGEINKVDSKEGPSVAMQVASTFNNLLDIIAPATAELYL
Experiment: ITC; 1.2 mM Bd0108 titrated into 0.02 mM Bd0109; VP-ITC, 25°C; 20 mM Tris pH 7.0 100 mM NaCl 1 mM β-ME; one-site model
Conditions: both partners purified

B1: Bd0108 (natural protein, Bdellovibrio bacteriovorus HD100)
chain: SHMADENANRPVNPGEDPNEAFRSTPFEATTSALGDCRECIAYRTGATTGKGSRRHDDTVSREIKGSSATPGGSEKAGTGRQ
modifications: disulfide between C56 and C59; 15N-labelled in the NMR titration
notes: tripeptide left on the mature N-terminus after thrombin cleavage of the His tag (cloning artefact); Bd0108 of Bdellovibrio bacteriovorus HD100, a 101 amino acid protein with an N-terminal Sec signal peptide; amino acids 23-101 cloned into pET28b; The assigned cloning artefacts (residues 21 and 22) in the titration point to this cytoplasmic construct and not to the PelB construct; also called …
  Kd: 45 µM
  dH: -8.7 kJ/mol
  stoichiometry N: 3.1
